{"source": "paper PMC12318183", "about": "“Structure reveals a regulation mechanism of plant outward-rectifying K^+ channel GORK by structural rearrangements in the CNBD–Ankyrin bridge” (Proceedings of the National Academy of Sciences of the …, 2025)", "molecules": {"B1": {"name": "GUARD CELL OUTWARD-RECTIFYING K+ (GORK) channel (natural protein, Arabidopsis thaliana)", "chain": "GRLRRRQEIIDHEEEESNDDVSSRRGKLSLAETFRWLDSSEHRRIETDGHNDYKYIIHPKNRWYKAWEMFILVWAIYSSLFTPMEFGFFRGLPERLFVLDIVGQIAFLVDIVLQFFVAYRDTQTYRTVYKPTRIAFRYLKSHFLMDFIGCFPWDLIYKASGKHELVRYLLWIRLFRVRKVVEFFQRLEKDTRINYLFTRILKLLFVEVYCTHTAACIFYYLATTLPPENEGYTWIGSLKLGDYSYENFREIDLWKRYTTALYFAIVTMATVGYGDIHAVNLREMIFVMIYVSFDMVLGAYLIGNITALIVKGSNTERFRDKMNDLISFMNRKKLGRDLRSQITGHVRLQYDSHYTDTVMLQDIPASIRAKIAQLLYLPYIKKVPLFKGCSTEFINQIVIRLHEEYFLPGEVITEQGNVVDHLYFVCEGLLEALVTKTDGSEESVTLLGPHTSFGDISIICNISQPFTVRVCELCHLLRLDKQSFSNILEIYFHDGRTILNNIMEEKESNDRIKKLESDIVIHIGKQEAELALKVNSAAFQGDFYQLKSLIRSGADPNKTDYDGRSPLHLAACRGYEDITLFLIQEGVDVNLKDKFGHTPLFEAVKAGQEGVIGLLVKEGASFNLEDSGNFLCTTVAKGDSDFLKRLLSSGMNPNSEDYDHRTPLHVAASEGLFLMAKMLVEAGASVISKDRWGNSPLDEARLCGNKKLIKLLEDVKNAQSSIYPSSLRELQEERIERRKCTVFPFHPQEAKEERSRKHGVVVWIPSNLEKLIVTAAKELGLSDGASFVLLSEDQGRITDIDMISDGHKLYMISDTTDQT", "notes": "GORK outward-rectifying K+ channel, Arabidopsis thaliana, UniProt Q94A76; optimised synthetic coding DNA; positions counted from the initial Met; the model covers about residues 50-720; No step that removes a tag is described; Solubilised in LMNG/CHS, kept in GDN; also called GORKWT1; GORKWT2"}}, "key": {"[1]": {"target": "GORK(CA-ANK)_(AKT1) chimeric channel (Arabidopsis thaliana | Arabidopsis)"}, "[2]": {"target": "the molecule itself", "experiment": "cryo-EM structure; single-particle cryo-EM of purified GORK at 4 mg/ml; SEC buffer 0.02% GDN, 150 mM KCl, 20 mM Tris pH 8.0, 2 mM DTT; consensus map and five maps from ANK-focused 3D classification"}}, "data": [{"molecule": "CIPK23/CBL1 protein kinase complex (from UniProt Q93VD3 1-482; O81445 1-213)", "values": [{"measurement": "outward K+ current of GORK(CA-ANK) (AKT1) in Xenopus oocytes with coexpressed CIPK23/CBL1 against without, two-electrode voltage clamp, at 70 mV", "setting": "[1]", "result": 3, "unit": "fold"}]}, {"molecule": "B1", "values": [{"measurement": "stoichiometry N", "setting": "[2]", "result": 4}]}]}
